Experimental data: article PMC4872099 (Nucleic Acids Research, 2016)
Several values for one entry are separate records, joined by “and”; a condition that tells them apart may be missing. Identical values can stand only once.

Columns and labels:
[1] = target: phage T4 gp16 oligomerization domain alone (N- and C-terminal domains deleted) (bacteriophage T4); experiment: SEC
SEC = target: the molecule itself; experiment: SEC

Molecule	stoichiometry N (SEC)	binding result (SEC)	also measured
phage T4 gp16 oligomerization domain alone (N- and C-terminal domains deleted) (domain or fragment)	–	–	stoichiometry N [1]: 11 and 12
phage T4 gp16 N-C fusion (amino acids 36-118 deleted; lacks helix alpha1 and helix alpha2) (natural protein, bacteriophage T4, UniProt P17311 1-164, looked up) MEGLDINKLLDISDLPGIDGEEIKVYEPLQLVEVKGAVPTGQMNIQNATVFMGSPTELMDEIGDAYEAQEAREKVINGTTD	2	–	–
phage T4 small terminase (TerS) gp16, wild type (natural protein, bacteriophage T4, UniProt P17311 1-164, looked up) MEGLDINKLLDISDLPGIDGEEIKVYEPLQLVEVKSNPQNRTPDLEDDYGVVRRNMHFQQQMLMDAAKIFLETAKNADSPRHMEVFATLMGQMTTTNREILKLHKDMKDITSEQVGTKGAVPTGQMNIQNATVFMGSPTELMDEIGDAYEAQEAREKVINGTTD	–	binds	–
phage T4 gp16 mutant 4M (R98A, K102A, K105A, K108A) (natural protein, bacteriophage T4, UniProt P17311 1-164, looked up) MEGLDINKLLDISDLPGIDGEEIKVYEPLQLVEVKSNPQNRTPDLEDDYGVVRRNMHFQQQMLMDAAKIFLETAKNADSPRHMEVFATLMGQMTTTNAEILALHADMADITSEQVGTKGAVPTGQMNIQNATVFMGSPTELMDEIGDAYEAQEAREKVINGTTD	~6	–	–
phage T4 gp16 mutant 3M (R98A, K102A, K108A) (natural protein, bacteriophage T4, UniProt P17311 1-164, looked up) MEGLDINKLLDISDLPGIDGEEIKVYEPLQLVEVKSNPQNRTPDLEDDYGVVRRNMHFQQQMLMDAAKIFLETAKNADSPRHMEVFATLMGQMTTTNAEILALHKDMADITSEQVGTKGAVPTGQMNIQNATVFMGSPTELMDEIGDAYEAQEAREKVINGTTD	–	binds	–
